Ten molecules from patent publication US20190112375A1 (Bristol-Myers Squibb, published 2019) can be followed below.

The chains are these.
T1: human TIGIT (soluble, SPR; construct not stated) (human, UniProt Q495A1 22-141, limits assumed)
T1 construct: whole entry named; also called huTIGIT
T1 sequence: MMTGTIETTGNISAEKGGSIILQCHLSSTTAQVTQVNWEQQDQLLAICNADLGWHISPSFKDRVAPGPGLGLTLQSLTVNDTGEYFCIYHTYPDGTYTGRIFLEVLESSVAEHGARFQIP

T2: human TIGIT on cells (human, UniProt Q495A1 22-244)
T2 sequence: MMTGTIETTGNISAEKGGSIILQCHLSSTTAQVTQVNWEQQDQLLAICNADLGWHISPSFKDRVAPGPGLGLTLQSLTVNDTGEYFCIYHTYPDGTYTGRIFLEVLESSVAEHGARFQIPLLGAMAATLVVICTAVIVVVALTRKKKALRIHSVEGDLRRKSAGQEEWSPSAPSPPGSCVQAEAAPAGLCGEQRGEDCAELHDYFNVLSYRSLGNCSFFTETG

T3: recombinant human TIGIT (rhTIGIT/Fc) (human, UniProt Q495A1 22-141)
T3 construct: also called TIGIT antigen (rhTIGIT/Fc); not shown: Fc part
T3 sequence: T1 sequence

B1: 22G2 (antibody, V domains shown)
VH: QVHLQESGPGLVKPSETLSLTCTVSGGSVSSGIYYWSWIRQPPGKGLEWIGYIYYSGSTNYNPSLKSRVTISVDTSKNQFSLKLSSVTAADTAVYYCARDYYVSGNYYNVDYYFFGVDVWGQGTTVTVSS
VL: EIVLTQSPATLSLSPGERATLSCRASQSVSSYLAWYQQKPGQAPRLLIYDASNRATGIPARFSGSGSGTDFTLTISSLEPEDFAVYYCQQRSNWPPLFTFGPGTKVDIK
notes: fully human mAb from KM mouse hybridoma, kappa light chain; also called anti-huTIGIT mAb 22G2; antibody 22G2
B2: 22G2 H3Q IgG1.1f (antibody)
heavy: QVQLQESGPGLVKPSETLSLTCTVSGGSVSSGIYYWSWIRQPPGKGLEWIGYIYYSGSTNYNPSLKSRVTISVDTSKNQFSLKLSSVTAADTAVYYCARDYYVSGNYYNVDYYFFGVDVWGQGTTVTVSSASTKGPSVFPLAPSSKSTSGGTAALGCLVKDYFPEPVTVSWNSGALTSGVHTFPAVLQSSGLYSLSSVVTVPSSSLGTQTYICNVNHKPSNTKVDKRVEPKSCDKTHTCPPCPAPEAEGAPSVFLFPPKPKDTLMISRTPEVTCVVVDVSHEDPEVKFNWYVDGVEVHNAKTKPREEQYNSTYRVVSVLTVLHQDWLNGKEYKCKVSNKALPSSIEKTISKAKGQPREPQVYTLPPSREEMTKNQVSLTCLVKGFYPSDIAVEWESNGQPENNYKTTPPVLDSDGSFFLYSKLTVDKSRWQQGNVFSCSVMHEALHNHYTQKSLSLSPG
light: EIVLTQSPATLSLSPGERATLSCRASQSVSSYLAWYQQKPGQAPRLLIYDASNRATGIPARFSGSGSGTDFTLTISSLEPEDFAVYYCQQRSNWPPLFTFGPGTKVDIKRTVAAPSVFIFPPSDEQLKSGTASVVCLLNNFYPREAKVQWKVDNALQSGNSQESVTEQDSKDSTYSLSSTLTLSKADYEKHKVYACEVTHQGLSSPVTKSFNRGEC
notes: kappa constant tied to the 22G2 light chain only by claim 4; also called 22G2 VH domain H3Q, isotype IgG1.1f
B3: 22G2 H3Q IgG1 (antibody)
heavy: B1 VH with H3Q
light: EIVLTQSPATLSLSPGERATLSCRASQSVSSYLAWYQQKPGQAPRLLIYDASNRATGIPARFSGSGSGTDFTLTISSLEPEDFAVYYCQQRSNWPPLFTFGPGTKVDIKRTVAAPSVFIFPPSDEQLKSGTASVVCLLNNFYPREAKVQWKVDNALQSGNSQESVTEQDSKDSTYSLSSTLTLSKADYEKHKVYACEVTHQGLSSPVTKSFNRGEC
notes: isotype printed as IgG1 (perhaps IgG1f); kappa constant tied to the 22G2 light chain only by claim 4; also called 22G2 VH domain H3Q, isotype IgG1; not shown: human IgG1 constant region
B4: 15A6 IgG1.1f (antibody)
heavy: QLQLQESGPGLVKPSETLSLTCTVSGGSISSSRYFWGWIRQPPGKGLEWIGYIYYRGSTYYNPSLKSRVTIAVDTSKNQFSLKLSSVTAADTAVYYCASSSAWYFDYWGQGNLVTVSSASTKGPSVFPLAPSSKSTSGGTAALGCLVKDYFPEPVTVSWNSGALTSGVHTFPAVLQSSGLYSLSSVVTVPSSSLGTQTYICNVNHKPSNTKVDKRVEPKSCDKTHTCPPCPAPEAEGAPSVFLFPPKPKDTLMISRTPEVTCVVVDVSHEDPEVKFNWYVDGVEVHNAKTKPREEQYNSTYRVVSVLTVLHQDWLNGKEYKCKVSNKALPSSIEKTISKAKGQPREPQVYTLPPSREEMTKNQVSLTCLVKGFYPSDIAVEWESNGQPENNYKTTPPVLDSDGSFFLYSKLTVDKSRWQQGNVFSCSVMHEALHNHYTQKSLSLSPG
VL: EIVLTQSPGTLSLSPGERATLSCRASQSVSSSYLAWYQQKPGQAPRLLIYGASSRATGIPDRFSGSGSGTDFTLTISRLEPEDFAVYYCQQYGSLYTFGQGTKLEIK
notes: kappa light chain
B5: 15A6 A72S & N112T IgG1.1f (antibody)
heavy: B4 heavy with A72S, N112T
VL: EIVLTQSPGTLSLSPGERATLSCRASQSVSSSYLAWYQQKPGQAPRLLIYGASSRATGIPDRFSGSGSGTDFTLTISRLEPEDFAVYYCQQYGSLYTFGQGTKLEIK
notes: kappa light chain; also called 15A6 VH domain A72S N112T
B6: 15A6 N112T IgG1.1f (antibody)
heavy: B4 heavy with N112T
VL: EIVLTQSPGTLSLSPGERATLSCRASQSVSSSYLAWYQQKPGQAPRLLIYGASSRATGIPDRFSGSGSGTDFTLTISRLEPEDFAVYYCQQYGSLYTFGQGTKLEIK
notes: kappa light chain; also called 15A6 VH domain N112T
B7: 15A6 A72S IgG1.1f (antibody)
heavy: B4 heavy with A72S
VL: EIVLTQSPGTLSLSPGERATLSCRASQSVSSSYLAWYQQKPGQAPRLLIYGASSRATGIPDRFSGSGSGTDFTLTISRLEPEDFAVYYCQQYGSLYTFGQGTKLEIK
notes: kappa light chain; also called 15A6 VH domain A72S
B8: 15A6 (antibody, V domains shown)
VH: QLQLQESGPGLVKPSETLSLTCTVSGGSISSSRYFWGWIRQPPGKGLEWIGYIYYRGSTYYNPSLKSRVTIAVDTSKNQFSLKLSSVTAADTAVYYCASSSAWYFDYWGQGNLVTVSS
VL: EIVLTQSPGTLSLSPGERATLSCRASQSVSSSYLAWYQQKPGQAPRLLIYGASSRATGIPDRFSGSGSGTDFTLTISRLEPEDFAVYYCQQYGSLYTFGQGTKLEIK
notes: fully human mAb from KM mouse hybridoma, kappa light chain; also called anti-huTIGIT mAb 15A6
B9: 11G11 (antibody, V domains shown)
VH: QLQLQESGPGLVKPSETLSLTCTVSGGSISSSSHYWGWIRQPPGKGLEWIGNIFYSGHTYYNPSLKSRVTISVDTSKNQFSLKLSSVTAADTAVYYCARQGLLWFGGLSPYYFDYWGQGTLVTVSS
VL: EIVLTQSPATLSLSPGERATLSCRASQSVSSYLAWYQQKPGQAPRLLIYDASNRATGIPARFSGSGSGTDFTLTISSLEPEDFAVYYCQQRSNWPTFGQGTKLEIK
notes: fully human mAb from KM mouse hybridoma; also called anti-huTIGIT mAb 11G11
B10: 10D7 (antibody, V domains shown)
VH: QGQLVQSGAEVKKPGSSVKVSCKASGGIFRNYAISWVRQAPGQGLEWMGGIIPFFGTANYAQKFQGRVTITADESTSTAYMELSSLRSEDTAVYYCARGGAAAGTTRYGYYYYGMDVWGQGTTVTVSS
VL: DIQMTQSPSSLSASVGDRVTITCRASQGISSWLAWYQQKPEKAPKSLIYAASSLQSGVPSRFSGSGSGTDFTLTISSLQPEDFATYYCQQYNSYPITFGQGTRLEIK
notes: fully human mAb from KM mouse hybridoma; also called anti-huTIGIT mAb 10D7

Usually Kd stands for the concentration at which binding is half-saturated. As usually defined, the koff is the first-order rate constant of dissociation. The kon is the second-order rate constant of association.

Numbering of substitutions follows the chain as printed. In names and notes the source's numbering stands.

For the first test, the target named is T1, human TIGIT (soluble, SPR; construct …). As to the kind of experiment: SPR. In general terms: Surface plasmon resonance follows binding to a sensor surface in real time, without labels.
For B1, binding was characterised by a dissociation constant (Kd) of 0.06 nM.

The target in the next test is T4, cynomolgus monkey TIGIT (cynomolgus monkey).
T4 construct: also called cyno TIGIT
Put plainly: SPR.
As for B1, the affinity, expressed as Kd, was 0.09 nM.

The next test concerns the target T1, human TIGIT (soluble, SPR; construct …). Put plainly: SPR. This is another data set of the same source.
B2: the Kd stood at 0.08 nM, the koff worked out at 0.00016 s⁻¹ and the kon is 2e+06 M⁻¹ s⁻¹.

The molecule B3 displayed a Kd of 0.16 nM, an off-rate (koff) of 0.0003 s⁻¹ and a kon of 1.9e+06 M⁻¹ s⁻¹.

For B4, the Kd was found to be 1.5 nM, the koff amounted to 0.0016 s⁻¹ and the kon was found to be 1.1e+06 M⁻¹ s⁻¹.

As for B5, the Kd was 2 nM, the koff turned out to be 0.002 s⁻¹ and the on-rate (kon) came to 1e+06 M⁻¹ s⁻¹.

Consider B6, for which the Kd was determined as 1.7 nM, the koff was found to be 0.0019 s⁻¹ and the kon was 1.1e+06 M⁻¹ s⁻¹.

In turn, B7 gave a Kd of 1.5 nM, a dissociation rate constant (koff) of 0.0017 s⁻¹ and a kon of 1.1e+06 M⁻¹ s⁻¹.

In the next test the target is T2, human TIGIT on cells. As to the kind of experiment: cell-based or functional assay.
For B1, the “Bioassay of Jurkat/hTIGIT cells, block of PVR signaling, IC50” value was found to be 0.21 nM.

Another test deals with T1, human TIGIT (soluble, SPR; construct …). As to the kind of experiment: SPR, full titration curves, subcloned and purified antibody.
B8 came in with a Kd of 1.5 nM.

In the case of B1, binding was put at a Kd of 0.09 nM.

A further test deals with T3, recombinant human TIGIT (rhTIGIT/Fc). As to the kind of experiment: SPR, mAb captured on anti-kappa chip, rhTIGIT/Fc analyte. The procedure:
Binding of anti-huTIGIT antibodies to soluble human TIGIT was determined by BIACORE® surface plasmon resonance (SPR) analysis. […] The capture concentration of the mAb/volume was 2-40 μg/mL (5 μL at 10 μL/min). The antigen association time was 5 minutes at 15 μL/min, the antigen dissociation time was 6 minutes, and regeneration was performed with 50 mM HCl/50 mM NaOH (12 μL each at 100 μL/min).
In the case of B9, the Kd is 28.7 nM, the koff was 0.00144 s⁻¹ and the kon turned out to be 50300 M⁻¹ s⁻¹.

B8: the Kd worked out at 19.9 nM, the koff came out at 0.00404 s⁻¹ and the kon worked out at 202000 M⁻¹ s⁻¹.

B1: the Kd stood at 0.17 nM, the koff was determined as 0.000403 s⁻¹ and the kon came to 2.37e+06 M⁻¹ s⁻¹.

As for B10, the Kd turned out to be 38.1 nM, the koff is 0.00651 s⁻¹ and the kon worked out at 171000 M⁻¹ s⁻¹.
